# Results reported in patent US20030180744, “High affinity oligonucleotide ligands to growth factors” (GILEAD SCIENCES, INC., published 2003).
# T1: KGF (hKGF) (Homo sapiens, UniProt P21781 P21781:32-194)
# T1 sequence: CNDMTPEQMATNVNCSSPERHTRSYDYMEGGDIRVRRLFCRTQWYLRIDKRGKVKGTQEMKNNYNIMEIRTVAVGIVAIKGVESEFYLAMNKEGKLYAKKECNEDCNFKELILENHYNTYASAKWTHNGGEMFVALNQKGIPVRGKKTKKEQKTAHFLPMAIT
# T2: KGF (rat) (Rattus norvegicus, UniProt Q02195 Q02195:32-194)
# T2 sequence: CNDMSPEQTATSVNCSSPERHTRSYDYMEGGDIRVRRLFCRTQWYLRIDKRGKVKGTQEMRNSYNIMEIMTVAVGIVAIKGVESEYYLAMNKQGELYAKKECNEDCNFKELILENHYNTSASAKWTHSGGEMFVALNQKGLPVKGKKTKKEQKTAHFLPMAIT
# B1: 20t-I4 (ssDNA)
# DNA: TGGGAGGGCGCGTTCTTCGTGGTTACTTTTAGTCCCG
# modifications: 5-iodo-dU at 24
# B2: 21A (ssRNA)
# RNA: GGGAGACAAGAAUAACGCUCAAGUAGACUAAUGUGUGGAAGACAGCGGGUGGUUCGACAGGAGGCUCACAACAGGC
# modifications: 2'-NH2 pyrimidines
# B3: 6F (ssRNA)
# RNA: GGGAGGACGAUGCGGGAUCCUUUGUGGGCUCUUGUUGACCCCCUCGUUGUCCCCCCCAGACGACUCGCCCGA
# modifications: 2'-F pyrimidines
# B4: 36t (ssDNA)
# DNA: CACAGGCTACGGCACGTAGAGCATCACCATGATCCTGTGT
# modifications: 3'-3' idT
# B5: 14F (ssRNA)
# RNA: GGGAGGACGAUGCGGUGGUCUCCCAAUUCUAAACUUUCUCCAUCGUAUCUGGGCCAGACGACUCGCCCGA
# modifications: 2'-F pyrimidines
# B6: 14F3'T (ssRNA)
# RNA: GGGAGGACGAUGCGGUGGUCUCCCAAUUCUAAACUUUCUCCAUCGUAUC
# modifications: 2'-F pyrimidines
# B7: lib4-32 boundary (ssRNA)
# RNA: GGGGGAGAACGCGGAUCCGGCAACCCCAGGCGCAUAGCUUCCGAGUAGACAGGCGGGAGGGGUGGAUGUGGCGUCACG
# modifications: modified pyrimidines
# B8: T35/T36 equimolar (ssRNA)
# RNA 1: GGUGGUCUCCCAAUUCUAUUCUCCAUCGUAUC
# RNA 2: GGGAGGACGAUG
# modifications: 2'-F pyrimidines
# B9: 36t 2'-OMe/2'-F (mixed)
# mixed: CAGGCUACGGCACGTAGAGCAUCACCATGATCCUG
# modifications: 2'-OMe C8,C11,C25,C26,G9,G10,G17,G19,G35,A12,A24,A27,U34; 2'-F U6,U22,C23,C32,C33; 3'-3' idT
# B10: 21A-t (ssRNA)
# RNA: GGUGUGUGGAAGACAGCGGGUGGUUC
# modifications: 2'-NH2 pyrimidines
# B11: lib3-13 (ssRNA)
# RNA: GGGGGAGAACGCGGAUCCGAGCAAUCCCAGGCGCAUAGCUUCCGAGUAGACAGGAGGGAGGGGUGGAUGUGGCGUCUACUCGGUGUCGUGAAGCUUCGCUCUAGAUCUCCCUUUAGUGAGGGUUA
# modifications: 2'-NH2 pyrimidines
# B12: 14N (ssRNA)
# RNA: GGGAGGACGAUGCGGUCCAGGGAUUGAAGUGUCGGGGUAGGAACAUAAAGGCGGCCAGACGACUCGCCCGA
# modifications: 2'-NH2 pyrimidines
# Key:
# PDGF-AB [1] = molecular target: T3, PDGF-AB (Homo sapiens, UniProt P04085;P01127 P04085:87-211,P01127:82-190); assay: efficient photo-crosslinking at 308 nm, to Phe84 of B chain; settings: tags: R&D Systems, E. coli; chain copies: A/B chain dimer
# bFGF (Example 20) [2] = molecular target: T4, bFGF (Example 20) (UniProt P09038 P09038:143-288); assay: parent SELEX ligand
# KGF (hKGF) [3] = molecular target: T1, KGF (hKGF); assay: filter; biphasic, high affinity 37%; Kd2 3.25 nM; PC-3 Ki 0.16 nM; settings: tags: Upstate Biotechnology; label: 32P; pseudoknot (predicted)
# KGF (hKGF) [4] = molecular target: T1, KGF (hKGF); assay: competition; PC-3 cells; 6.8 nM on NIH3T3/FGFR-2; 830 pM Balb/MK; settings: tags: Upstate Biotechnology; pseudoknot
# Experimental: (§1) PC-3 cells were plated in 24-well plates at about 10⁵ cells per well. Following growth for […], the cells were serum starved for 24 hours, washed two times with 500 μl of cold DPBS, and then incubated with 500 μl binding buffer (BB1; DPBS, 0.5 mM MgCl₂, 0.2% BSA. 0.02% sodium azide) containing various concentrations of ¹²⁵I-labeled KGF ranging from 0 to 0.8 nM. Following 3-3.5 hour incubation at 4° C., the binding mixes were aspirated and the well-adhered cells were washed two times with 1 ml BB1 and once with 1 ml BB1 supplemented with 0.5M NaCl. The remaining bound labeled hKGF was solubilized in 600 μl 0.5% SDS/0.1M NaOH and counted in a gamma counter (Beckmann). Nonspecific binding was determined in the presence of 100 fold molar excess of unlabeled hKGF. For competition assays, the labeled hKGF was kept constant at […], and varying concentrations of competitor molecules were included in the binding reactions ranging from 0-1,000 nM. Binding curves were fitted to the equation: […]
# (§2) A subset of these ligands was tested on the NIH3T3/FGFR-2. In determining the Ki values, it was assumed that 3T3 cells have 500,000 binding sites per cell and PC-3 cells have 5,000 binding sites per cell.
# KGF (hKGF) [5] = molecular target: T1, KGF (hKGF); assay: competition; PC-3 cells; settings: tags: Upstate Biotechnology
# Outline: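 Serum-starved PC-3 cells incubated 3–3.5 h at 4 °C with ¹²⁵I-hKGF held at […] plus competitors at 0–1,000 nM. Bound label was counted after a 0.5 M NaCl wash, with nonspecific binding defined by 100-fold excess unlabelled hKGF.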
# PDGF-BB = PDGF-BB (Homo sapiens, UniProt P01127 P01127:82-190); assay: competition; PDGF alpha-receptor PAE cells, 4 C; mitogenic half-maximal 2.5 nM; settings: tags: R&D Systems, E. coli; chain copies: B chain dimer; three-way helix junction
# KGF (hKGF) [6] = molecular target: T1, KGF (hKGF); assay: competition; PC-3 cells; 2.7 nM on NIH3T3/FGFR-2; 92 pM Balb/MK; settings: tags: Upstate Biotechnology; pseudoknot
# Experimental: as §1, §2
# KGF (hKGF) [7] = molecular target: T1, KGF (hKGF); assay: filter; biphasic, high affinity 25-44%; text p221 gives 0.3-3 pM and 2-10 nM; PC-3 Ki 0.2 nM; settings: tags: Upstate Biotechnology; label: 32P; pseudoknot (predicted)
# bFGF = bFGF (Homo sapiens, UniProt P09038 P09038:143-288); assay: filter; specificity control; random RNA 0.0375 and 10.3 nM; settings: tags: R&D Systems; label: 32P; pseudoknot (predicted)
# KGF (hKGF) [8] = molecular target: T1, KGF (hKGF); assay: cell_activity; Balb/MK mitogenic assay; settings: tags: Upstate Biotechnology; pseudoknot
# Experimental: (§3) Balb/MK cells grown in Low Ca⁺⁺ EMEM with 10% FCS (dialyzed and heat inactivated) and 5 ng/ml rhEGF were trypsinized and resuspended in Low Ca⁺⁺ EMEM with 1% FCS (dialyzed and heat inactivated) and 0.5 ng/ml rhEGF and plated on 96 well fibronectin coated culture plates at 4-6×10⁴ cells per well in 100 μl total volume. Following overnight growth, the medium was replaced with Low Ca⁺⁺ EMEM without FCS or rhEGF and serum starved for about 30 hrs. […] Following over-night incubation, ³H-thymidine was added at 0.2 μCi/well and incubation continued for an additional 7-8 hrs. The extent of ³H-thymidine incorporation was determined by TCA precipitation and filtration through GFC filter disks.
# KGF (rat) [9] = molecular target: T2, KGF (rat); assay: filter; high affinity component; Kd2 70.0 nM; settings: tags: QED Advanced Research Technologies; label: 32P; pseudoknot (predicted)
# TGFβ1 [10] = molecular target: T5, TGFβ1 (Homo sapiens, UniProt P01137 P01137:279-390); assay: filter; specificity control; random RNA 10.4 nM; settings: tags: Genentech; biotinylated version used in bead assay; chain copies: 2; label: 32P; pseudoknot (predicted)
# PDGF-AB [11] = molecular target: T3, PDGF-AB; assay: filter; specificity control; random RNA 22.0 nM; settings: tags: R&D Systems, E. coli; label: 32P; pseudoknot (predicted)
# EGF = EGF (Homo sapiens, UniProt P01133 P01133:971-1023); assay: filter; specificity control; random RNA 2000 nM; settings: tags: Upstate Biotechnology; label: 32P; pseudoknot (predicted)
# KGF (rat) [12] = molecular target: T2, KGF (rat); assay: cell_activity; Balb/MK DNA synthesis; settings: tags: QED Advanced Research Technologies; pseudoknot
# Experimental: as §3
# TGFβ1 [13] = molecular target: T5, TGFβ1; assay: filter; 3' boundary experiment; settings: tags: Genentech or R&D Systems; chain copies: 2
# KGF (hKGF) [14] = molecular target: T1, KGF (hKGF); assay: filter; equimolar halves; high -, low -; settings: tags: Upstate Biotechnology
# Experimental: In an effort to identify shorter KGF ligands that retained binding, the binding activity of various deletions of the shortest truncate of ligand 14F, namely 14F3′T were tested. Deletions were tested in all the structural elements of the proposed pseudoknot structure. RNA transcripts containing 2′F pyrimidines and 2′OH purines were obtained by in vitro transcription using synthetic DNA templates. The activity of each ligand is shown by scoring for both the high (H) and low (L) affinity component of the 14F3′T binding curve with +(active) or −(not active). Truncates T35 and T36 represent two complementary halves of 14F3′T molecule and were additionally tested as an equimolar mixture. The structural elements of the proposed pseudoknot structure are separated by (1) and are indicated by symbols S1 (stem 1), S2 (stem 2), L1 (loop 1) and L3 (loop 3). The proposed pseudoknot structure for 14F3′T is a non-H-type pseudoknot and lacks L2 (loop 2). The complementary sequences forming S1 (S1 and S1′) and S2 (S2 and S2′) are marked by single and double underlines respectfully. In the tabulated sequences, deleted bases were replaced with periods (.). […] Deletions in loop 3 (L3), however, were tolerated as long as one copy of the RRYY box remained intact. The shortest ligand that retained activity is T22 which is a 43-mer. […]
# PDGF-AB [15] = molecular target: T3, PDGF-AB; assay: filter; substitution pattern compatible with high affinity; settings: tags: R&D Systems, E. coli; chain copies: A/B chain dimer; three-way helix junction
# bFGF (Example 20) [16] = molecular target: T4, bFGF (Example 20); assay: truncated ligand from deletion analysis
# TGFβ1 [17] = molecular target: T5, TGFβ1; assay: cell_activity; PAI-luciferase MLEC, n=4; settings: tags: Genentech or R&D Systems; chain copies: 2;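 also: inhibition of TGFβ1-induced luciferase reporter expression in mink lung epithelial cells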
# Experimental: Mink lung epithelial cells (MLEC) carrying the Pail/luc construct were maintained in DME containing 10% fetal bovine serum and 400 μg/ml G418. MLEC-Pail/luc cells were plated at 3.2×10⁴ cells per well in a 96 well Falcon plate, in 100 μl of DME+10% fetal bovine serum overnight. Media was made from autoclaved water. The cells were washed three times ([…]) in serum free DME plus Solution A (1:1). Solution A is 30 mM Hepes pH 7.6, 10 mM glucose, 3.0 mM KCl, 131 mM NaCl, 1.0 mM disodium phosphate. Samples (100 μl) were added in DME containing 20 mM Hepes pH 7.5, and 0.1% BSA (Fluka, radioimmunoassay grade). All samples were in triplicate. After six hours at 37° C. in a 5% CO₂ incubator the media was removed and cells were washed three times (100 μl each) in cold PBS. Lysis buffer (75 μl) (Analytical Luminescence Laboratory) was added and the plates incubated on ice for 20 min. The plates were sealed and frozen at −80° C. until assayed. Samples (25 μl) were assayed for luciferase activity with the Enhanced Luciferase Assay Kit from Analytical Luminescence Laboratory (San Diego, Calif., USA) according to the manufacturer's instructions using the Berthold Microlumat LB96P luminometer.
# Ligands tested for inhibition of TGFβ1 activity were tested at a minimum of five concentrations. […]
# KGF (hKGF) [18] = molecular target: T1, KGF (hKGF); assay: competition; PC-3 cells; 10.6 nM partial on NIH3T3/FGFR-2; settings: tags: Upstate Biotechnology
# Experimental: as §1, §2
# KGF (hKGF) [19] = molecular target: T1, KGF (hKGF); assay: filter; DPBS, 37 C; PC-3 Ki […] nM; settings: tags: Upstate Biotechnology; label: 32P
# T5 sequence (P01137 279-390, one chain of several): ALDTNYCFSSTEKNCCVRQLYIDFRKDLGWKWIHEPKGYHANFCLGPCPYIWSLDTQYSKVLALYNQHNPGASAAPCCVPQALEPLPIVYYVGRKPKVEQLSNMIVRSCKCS
# T3 sequence (P01127 82-190, chain 2 of 2, other chains not shown): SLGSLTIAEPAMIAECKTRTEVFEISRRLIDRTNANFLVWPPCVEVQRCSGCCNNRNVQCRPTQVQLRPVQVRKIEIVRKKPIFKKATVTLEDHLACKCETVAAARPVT
# T4 sequence (P09038 143-288, one chain of several): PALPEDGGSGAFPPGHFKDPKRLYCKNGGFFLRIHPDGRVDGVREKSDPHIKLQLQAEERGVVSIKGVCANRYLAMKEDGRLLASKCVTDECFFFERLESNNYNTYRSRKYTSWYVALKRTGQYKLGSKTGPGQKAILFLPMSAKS
# Chain of PDGF-BB (P01127 82-190, one chain of several): as the sequence (P01127 82-190, chain 2 of 2, other chains not shown) above
# Chain of EGF (P01133 971-1023, one chain of several): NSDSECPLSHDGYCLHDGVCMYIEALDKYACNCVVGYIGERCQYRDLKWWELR
# Chain of bFGF (P09038 143-288, one chain of several): as the sequence (P09038 143-288, one chain of several) above
binder,measurement,setting,value
B1,binding result,PDGF-AB [1],binds
B2,binding result,bFGF (Example 20) [2],binds
B3,Kd,KGF (hKGF) [3],0.05 nM
same,Ki,KGF (hKGF) [4],0.16 nM
same,IC50,KGF (hKGF) [5]; pseudoknot,4 nM
B4,IC50,PDGF-BB,~1 nM
B5,Ki,KGF (hKGF) [6],0.2 nM
same,Kd,KGF (hKGF) [7],0.0134 nM
same,IC50,KGF (hKGF) [5]; pseudoknot,10 nM
B6,Kd,bFGF,10 nM
same,Ki,KGF (hKGF) [8],0.034 nM
same,Kd,KGF (rat) [9],0.0041 nM
same,Kd,TGFβ1 [10],98 nM
same,Kd,PDGF-AB [11],50 nM
same,Kd,EGF,256 nM
same,Ki,KGF (rat) [12],1.8 nM
B7,binding result,TGFβ1 [13],binds
B8,binding result,KGF (hKGF) [14],no binding
B9,binding result,PDGF-AB [15],binds
B10,binding result,bFGF (Example 20) [16],binds
B11,IC50,TGFβ1 [17],25 nM
B12,Ki,KGF (hKGF) [18],1.4 nM
same,Kd,KGF (hKGF) [19],0.44 nM
same,IC50,KGF (hKGF) [5],6 nM
